B1: CD137 #10 (A49.V48) + FAP #3 (A11 VK7/VH1) (bispecific antibody, human IgG1, kappa, L234A L235A)
heavy: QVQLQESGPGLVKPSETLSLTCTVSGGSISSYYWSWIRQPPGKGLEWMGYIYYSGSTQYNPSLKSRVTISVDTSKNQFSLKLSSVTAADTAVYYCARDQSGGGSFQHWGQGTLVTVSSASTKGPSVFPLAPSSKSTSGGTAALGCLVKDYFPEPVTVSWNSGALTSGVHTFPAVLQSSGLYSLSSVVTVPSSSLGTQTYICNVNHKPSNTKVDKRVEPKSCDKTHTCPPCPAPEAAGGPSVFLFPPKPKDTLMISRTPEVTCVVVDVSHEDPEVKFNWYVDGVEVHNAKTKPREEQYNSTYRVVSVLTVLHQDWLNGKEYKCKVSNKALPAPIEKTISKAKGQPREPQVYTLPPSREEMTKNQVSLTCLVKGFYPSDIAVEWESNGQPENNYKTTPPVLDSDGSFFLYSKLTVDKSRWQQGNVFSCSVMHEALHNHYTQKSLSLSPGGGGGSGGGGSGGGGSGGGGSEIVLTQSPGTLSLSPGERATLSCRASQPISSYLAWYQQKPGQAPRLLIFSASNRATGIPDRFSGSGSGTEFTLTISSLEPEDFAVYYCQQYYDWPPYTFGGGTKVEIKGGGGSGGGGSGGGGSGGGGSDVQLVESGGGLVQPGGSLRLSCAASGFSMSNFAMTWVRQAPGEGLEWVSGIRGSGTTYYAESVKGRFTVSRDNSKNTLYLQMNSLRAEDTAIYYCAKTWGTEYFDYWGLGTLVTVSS
light: EIVMTQSPLSLPVTPGEPASISCRSSQSLLYSQGYNHLDWYLQKPGQSPQLLIYGGSNRASGVPDRFSGSGSGTDFTLKISRVEAEDVGVYYCMQALQTPPTFGQGTKLEIKRTVAAPSVFIFPPSDEQLKSGTASVVCLLNNFYPREAKVQWKVDNALQSGNSQESVTEQDSKDSTYSLSSTLTLSKADYEKHKVYACEVTHQGLSSPVTKSFNRGEC
B2: CD137 #10 (A49.V48) + FAP #5 (C3 VK1/VH4) (bispecific antibody, human IgG1, kappa, L234A L235A)
heavy: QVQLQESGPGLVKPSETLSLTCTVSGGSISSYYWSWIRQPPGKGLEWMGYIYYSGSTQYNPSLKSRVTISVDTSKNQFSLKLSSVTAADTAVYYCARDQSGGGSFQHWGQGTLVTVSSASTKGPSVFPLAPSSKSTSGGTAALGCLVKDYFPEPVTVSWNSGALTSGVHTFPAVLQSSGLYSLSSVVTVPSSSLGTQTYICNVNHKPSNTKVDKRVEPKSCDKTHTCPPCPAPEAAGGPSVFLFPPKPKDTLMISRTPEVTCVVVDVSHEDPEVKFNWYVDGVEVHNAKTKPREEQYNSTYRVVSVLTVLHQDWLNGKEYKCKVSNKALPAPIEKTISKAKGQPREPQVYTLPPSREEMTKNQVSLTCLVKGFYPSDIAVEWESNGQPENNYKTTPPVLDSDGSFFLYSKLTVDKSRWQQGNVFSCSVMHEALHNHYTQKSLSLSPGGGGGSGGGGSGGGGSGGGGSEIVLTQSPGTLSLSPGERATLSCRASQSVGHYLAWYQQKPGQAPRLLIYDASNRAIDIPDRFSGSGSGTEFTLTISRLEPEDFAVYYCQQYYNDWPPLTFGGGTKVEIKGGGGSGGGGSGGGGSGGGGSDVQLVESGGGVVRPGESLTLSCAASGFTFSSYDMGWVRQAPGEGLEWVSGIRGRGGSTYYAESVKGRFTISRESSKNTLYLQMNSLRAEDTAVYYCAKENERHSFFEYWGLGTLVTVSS
light: EIVMTQSPLSLPVTPGEPASISCRSSQSLLYSQGYNHLDWYLQKPGQSPQLLIYGGSNRASGVPDRFSGSGSGTDFTLKISRVEAEDVGVYYCMQALQTPPTFGQGTKLEIKRTVAAPSVFIFPPSDEQLKSGTASVVCLLNNFYPREAKVQWKVDNALQSGNSQESVTEQDSKDSTYSLSSTLTLSKADYEKHKVYACEVTHQGLSSPVTKSFNRGEC
B3: CD137 #9 (A49.V47) + FAP #3 (A11 VK7/VH1) (bispecific antibody, human IgG1, kappa, L234A L235A)
heavy: not shown
light: EIVMTQSPLSLPVTPGEPASISCRSSQSLLYSQGYNHLDWYLQKPGQSPQLLIYGGSNRASGVPDRFSGSGSGTDFTLKISRVEAEDVGVYYCMQALQTPPTFGQGTKLEIKRTVAAPSVFIFPPSDEQLKSGTASVVCLLNNFYPREAKVQWKVDNALQSGNSQESVTEQDSKDSTYSLSSTLTLSKADYEKHKVYACEVTHQGLSSPVTKSFNRGEC
B4: CD137 #3 (B21.V22) + FAP #3 (A11 VK7/VH1) (bispecific antibody, human IgG1, kappa, L234A L235A)
heavy: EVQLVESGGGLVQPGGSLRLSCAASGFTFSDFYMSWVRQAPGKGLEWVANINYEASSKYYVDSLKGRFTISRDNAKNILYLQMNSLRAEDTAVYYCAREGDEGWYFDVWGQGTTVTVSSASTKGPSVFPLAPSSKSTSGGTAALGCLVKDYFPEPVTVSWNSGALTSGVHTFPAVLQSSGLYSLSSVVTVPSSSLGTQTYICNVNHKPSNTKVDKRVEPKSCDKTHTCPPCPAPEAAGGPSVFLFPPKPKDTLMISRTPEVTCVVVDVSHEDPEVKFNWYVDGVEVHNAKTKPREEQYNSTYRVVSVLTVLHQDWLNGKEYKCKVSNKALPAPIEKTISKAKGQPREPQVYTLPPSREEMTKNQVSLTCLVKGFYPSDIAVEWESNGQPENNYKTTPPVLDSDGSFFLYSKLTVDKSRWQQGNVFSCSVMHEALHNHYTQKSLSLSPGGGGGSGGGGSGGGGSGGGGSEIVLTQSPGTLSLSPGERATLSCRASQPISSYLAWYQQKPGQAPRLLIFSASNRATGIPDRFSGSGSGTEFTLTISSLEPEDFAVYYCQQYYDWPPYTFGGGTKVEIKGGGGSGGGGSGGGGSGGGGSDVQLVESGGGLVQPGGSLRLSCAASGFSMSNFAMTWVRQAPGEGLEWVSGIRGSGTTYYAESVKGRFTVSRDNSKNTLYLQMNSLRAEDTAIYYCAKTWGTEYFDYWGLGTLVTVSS
light: DIQMTQSPSSLSASVGDRVTITCRASQSVSSALAWYQQKPGKAPKLLIYAASYRQSGVPSRFSGSGSGTDFTLTISSLQPEDFAVYYCQQHYSNPWTFGQGTKLEIKRTVAAPSVFIFPPSDEQLKSGTASVVCLLNNFYPREAKVQWKVDNALQSGNSQESVTEQDSKDSTYSLSSTLTLSKADYEKHKVYACEVTHQGLSSPVTKSFNRGEC
B5: CD137 #3 (B21.V22) + FAP #5 (C3 VK1/VH4) (bispecific antibody, human IgG1, kappa, L234A L235A)
heavy: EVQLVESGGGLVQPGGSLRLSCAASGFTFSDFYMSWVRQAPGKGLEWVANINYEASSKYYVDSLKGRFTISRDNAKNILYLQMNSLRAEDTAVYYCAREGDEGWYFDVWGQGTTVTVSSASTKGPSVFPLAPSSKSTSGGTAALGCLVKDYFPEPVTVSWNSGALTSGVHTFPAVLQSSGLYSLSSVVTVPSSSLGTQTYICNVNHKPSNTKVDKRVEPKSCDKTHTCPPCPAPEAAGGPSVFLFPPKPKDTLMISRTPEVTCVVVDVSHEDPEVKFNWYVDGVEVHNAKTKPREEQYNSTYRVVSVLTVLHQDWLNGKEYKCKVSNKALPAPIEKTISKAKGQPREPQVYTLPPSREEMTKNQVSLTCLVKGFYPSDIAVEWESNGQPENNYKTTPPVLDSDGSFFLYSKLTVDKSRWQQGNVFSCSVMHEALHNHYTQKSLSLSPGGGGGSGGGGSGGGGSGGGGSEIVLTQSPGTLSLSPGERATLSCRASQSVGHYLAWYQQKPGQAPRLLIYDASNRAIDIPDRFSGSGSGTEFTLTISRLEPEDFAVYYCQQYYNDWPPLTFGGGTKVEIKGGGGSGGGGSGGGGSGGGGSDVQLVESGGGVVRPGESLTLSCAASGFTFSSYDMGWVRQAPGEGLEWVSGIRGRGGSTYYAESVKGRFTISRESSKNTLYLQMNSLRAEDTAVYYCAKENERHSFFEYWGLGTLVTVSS
light: DIQMTQSPSSLSASVGDRVTITCRASQSVSSALAWYQQKPGKAPKLLIYAASYRQSGVPSRFSGSGSGTDFTLTISSLQPEDFAVYYCQQHYSNPWTFGQGTKLEIKRTVAAPSVFIFPPSDEQLKSGTASVVCLLNNFYPREAKVQWKVDNALQSGNSQESVTEQDSKDSTYSLSSTLTLSKADYEKHKVYACEVTHQGLSSPVTKSFNRGEC
B6: CD137 #3 (B21.V22) + FAP #2 (A11 VK3/VH3) (bispecific antibody, human IgG1, kappa, L234A L235A)
heavy: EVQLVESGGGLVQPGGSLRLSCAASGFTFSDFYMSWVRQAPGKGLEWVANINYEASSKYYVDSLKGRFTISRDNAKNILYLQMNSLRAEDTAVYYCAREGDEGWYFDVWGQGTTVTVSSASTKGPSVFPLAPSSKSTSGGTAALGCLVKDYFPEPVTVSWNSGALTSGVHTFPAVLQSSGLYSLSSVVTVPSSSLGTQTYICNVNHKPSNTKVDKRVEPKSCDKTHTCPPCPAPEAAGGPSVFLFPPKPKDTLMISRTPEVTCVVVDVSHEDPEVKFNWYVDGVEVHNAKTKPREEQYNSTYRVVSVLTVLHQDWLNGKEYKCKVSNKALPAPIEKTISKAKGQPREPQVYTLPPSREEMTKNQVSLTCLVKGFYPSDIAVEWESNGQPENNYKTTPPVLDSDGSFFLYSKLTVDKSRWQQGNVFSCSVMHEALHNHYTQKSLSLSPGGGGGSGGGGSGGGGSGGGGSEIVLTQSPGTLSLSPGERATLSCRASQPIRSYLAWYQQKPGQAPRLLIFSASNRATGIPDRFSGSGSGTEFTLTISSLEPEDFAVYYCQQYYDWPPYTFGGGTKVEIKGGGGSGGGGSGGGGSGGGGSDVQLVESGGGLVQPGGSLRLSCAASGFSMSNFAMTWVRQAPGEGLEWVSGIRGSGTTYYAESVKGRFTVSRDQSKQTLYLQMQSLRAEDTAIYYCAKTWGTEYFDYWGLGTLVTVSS
light: DIQMTQSPSSLSASVGDRVTITCRASQSVSSALAWYQQKPGKAPKLLIYAASYRQSGVPSRFSGSGSGTDFTLTISSLQPEDFAVYYCQQHYSNPWTFGQGTKLEIKRTVAAPSVFIFPPSDEQLKSGTASVVCLLNNFYPREAKVQWKVDNALQSGNSQESVTEQDSKDSTYSLSSTLTLSKADYEKHKVYACEVTHQGLSSPVTKSFNRGEC
B7: CD137 #2 (B21.V16) + FAP #3 (A11 VK7/VH1) (bispecific antibody, human IgG1, kappa, L234A L235A)
heavy: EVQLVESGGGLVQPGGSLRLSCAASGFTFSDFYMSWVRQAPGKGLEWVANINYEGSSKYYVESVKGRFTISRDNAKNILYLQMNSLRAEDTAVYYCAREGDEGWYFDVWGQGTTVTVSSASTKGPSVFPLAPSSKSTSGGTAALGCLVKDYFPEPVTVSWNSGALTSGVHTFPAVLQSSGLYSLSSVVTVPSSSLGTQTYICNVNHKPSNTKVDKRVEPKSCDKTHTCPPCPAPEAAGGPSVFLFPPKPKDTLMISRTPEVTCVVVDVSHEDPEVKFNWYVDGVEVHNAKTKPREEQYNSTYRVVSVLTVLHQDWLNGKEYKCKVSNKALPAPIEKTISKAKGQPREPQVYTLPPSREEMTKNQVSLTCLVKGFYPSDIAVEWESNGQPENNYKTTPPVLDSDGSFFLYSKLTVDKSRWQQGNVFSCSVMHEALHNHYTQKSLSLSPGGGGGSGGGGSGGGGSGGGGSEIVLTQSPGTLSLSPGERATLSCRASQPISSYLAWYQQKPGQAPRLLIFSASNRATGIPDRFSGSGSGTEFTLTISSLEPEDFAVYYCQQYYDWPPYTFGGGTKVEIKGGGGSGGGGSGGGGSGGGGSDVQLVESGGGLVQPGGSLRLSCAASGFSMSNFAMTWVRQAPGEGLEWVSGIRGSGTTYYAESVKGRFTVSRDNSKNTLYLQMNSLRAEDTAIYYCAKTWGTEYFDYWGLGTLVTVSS
light: DIQMTQSPSSLSASVGDRVTITCKASQDISSAVAWYQQKPGKAPKLLIYSASSRYTGVPSRFSGSGSGTDFTLTISSLQPEDFAVYYCQQHYSNPWTFGQGTKLEIKRTVAAPSVFIFPPSDEQLKSGTASVVCLLNNFYPREAKVQWKVDNALQSGNSQESVTEQDSKDSTYSLSSTLTLSKADYEKHKVYACEVTHQGLSSPVTKSFNRGEC

What was measured:
[1] = target: T1, Human CD137 on Jurkat cells (human, UniProt Q07011 24-255); test: cell-based or functional assay; set-up: IC90; Jurkat-CD137 NFkB-luciferase, HT1080-FAP co-culture / EC90; Jurkat-CD137 NFkB-luciferase, HT1080-FAP co-culture: unit not given beside the values
[2] = target: T1, Human CD137 on Jurkat cells; test: cell-based or functional assay

Row | Binder | EC90; Jurkat-CD137 NFkB-luciferase, HT1080-FAP co-culture [1] | IC90; Jurkat-CD137 NFkB-luciferase, HT1080-FAP co-culture [1] | Total AUC; Jurkat-CD137 NFkB-luciferase, HT1080-FAP co-culture [1] | Average EC50; Jurkat-CD137 NFkB-luciferase, HT1080-FAP co-culture [2] [nM] | Average EC90; Jurkat-CD137 NFkB-luciferase, HT1080-FAP co-culture [2] [nM] | Average IC50; Jurkat-CD137 NFkB-luciferase, HT1080-FAP co-culture [2] [nM] | Average IC90; Jurkat-CD137 NFkB-luciferase, HT1080-FAP co-culture [2] [nM] | Ratio IC50/EC50; Jurkat-CD137 NFkB-luciferase, HT1080-FAP co-culture [2] | Ratio IC90/EC90; Jurkat-CD137 NFkB-luciferase, HT1080-FAP co-culture [2]
1 | B1 | 1.91 | 86.7 | 1.26e+07 |  |  |  |  |  | 
2 | B2 | 6.24 | 700 | 1.13e+07 |  |  |  |  |  | 
3 | B3 | 1.65 | 1.07 | 9.5e+06 |  |  |  |  |  | 
4 | B4 | 2.41 | 144 | 1.9e+06 |  |  |  |  |  | 
5 | B5 | 2.18 | 87.8 | 2.3e+06 |  |  |  |  |  | 
6 | B6 | 1.42 | 69.6 | 2.4e+06 |  |  |  |  |  | 
7 | B7 |  |  |  | 0.082 | 0.613 | 361 | 48.4 | 4380 | 79.1

Source: patent publication US20250136720A1 (Boehringer Ingelheim, published 2025)
